Measured values: patent EP4786495A1 (Nanjing Leads Biolabs Co., Ltd., dated 2026)

B1: bispecific fusion protein BI-9ND2-A (bispecific antibody, human IgG1, kappa)
heavy: not shown
light: ETVLTQSPATLSLSPGERATLSCRASSSVSYMYWFQQKPGQAPRLLIYSTSNLASGIPARFSGSGSGTDYTLTISSLEPEDFAVYYCQQRRNYPHTFGGGTKVEIKRTVAAPSVFIFPPSDEQLKSGTASVVCLLNNFYPREAKVQWKVDNALQSGNSQESVTEQDSKDSTYSLSSTLTLSKADYEKHKVYACEVTHQGLSSPVTKSFNRGEC
notes: also called heavy chain 37F2C6-HuVH3-3N-D2
B2: bispecific fusion protein having YTE mutations in the Fc region BI-9ND2-A-YTE (bispecific antibody, human IgG1, kappa)
heavy: SLSCRKEQGKFYDHLLRDCISCASICGQHPKQCAYFCENGGGGSGGGGSGGGGSQVQLVQSGAEVKKPGASVKVSCKASGYTFTDFAVHWVRQAPGQRLEWMGLIGTSSGSTNYNQKFQGRATMTVDKSANTAYMELSSLRSEDTAVYYCARNGYYVGYYALDYWGQGTTVTVSSASTKGPSVFPLAPSSKSTSGGTAALGCLVKDYFPEPVTVSWNSGALTSGVHTFPAVLQSSGLYSLSSVVTVPSSSLGTQTYICNVNHKPSNTKVDKKVEPKSCDKTHTCPPCPAPELLGGPSVFLFPPKPKDTLYITREPEVTCVVVDVSHEDPEVKFNWYVDGVEVHNAKTKPREEQYNSTYRVVSVLTVLHQDWLNGKEYKCKVSNKALPAPIEKTISKAKGQPREPQVYTLPPSRDELTKNQVSLTCLVKGFYPSDIAVEWESNGQPENNYKTTPPVLDSDGSFFLYSKLTVDKSRWQQGNVFSCSVMHEALHNHYTQKSLSLSPGK
light: B1 light
notes: also called heavy chain 37F2C6-HuVH3-ND2-YTE
B3: control antibody telitacicept (Fc fusion)
chain: SRVDQEERFPQGLWTGVAMRSCPEEQYWDPLLGTCMSCKTICNHQSQRTCAAFCRSLSCRKEQGKFYDHLLRDCISCASICGQHPKQCAYFCENKLRSPVNLPPELDKTHTCPPCPAPEAEGAPSVFLFPPKPKDTLMISRTPEVTCVVVDVSHEDPEVKFNWYVDGVEVHNAKTKPREEQYNSTYRVVSVLTVLHQDWLNGKEYKCKVSNKALPSSIEKTISKAKGQPREPQVYTLPPSRDELTKNQVSLTCLVKGFYPSDIAVEWESNGQPENNYKTTPPVLDSDGSFFLYSKLTVDKSRWQQGNVFSCSVMHEALHNHYTQKSLSLSPGK
notes: TACI-Fc fusion control; also called TACI fusion protein telitacicept

Tests used:
[1] = target: T1, human BAFF protein (ACRO Biosystems, Cat. No.: BAF-H52D4) (human, UniProt Q9Y275 134-285); test: BLI Octet RED96e, protein captured on AHC sensor, BAFF 100 nM in solution
[2] = target: T2, human BDCA2 protein (Kactus Biosystems, Cat# BCA-HM402) (human, UniProt Q8WTT0 45-213); test: BLI Octet RED96e, protein captured on AHC sensor, BDCA2 100 nM in solution
T2 construct: also called Human BDCA2-His
T2 sequence: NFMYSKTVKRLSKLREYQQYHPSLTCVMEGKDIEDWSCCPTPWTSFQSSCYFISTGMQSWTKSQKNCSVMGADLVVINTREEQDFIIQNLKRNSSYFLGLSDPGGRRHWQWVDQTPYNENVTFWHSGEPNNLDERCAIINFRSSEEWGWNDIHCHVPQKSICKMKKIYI

[3] = target: T3, human APRIL protein (ACRO Biosystems, Cat. No.: APL-H52D1) (human, UniProt O75888 115-250, limits assumed); test: BLI Octet RED96e, protein captured on AHC sensor, APRIL 100 nM in solution
T3 sequence (looked up): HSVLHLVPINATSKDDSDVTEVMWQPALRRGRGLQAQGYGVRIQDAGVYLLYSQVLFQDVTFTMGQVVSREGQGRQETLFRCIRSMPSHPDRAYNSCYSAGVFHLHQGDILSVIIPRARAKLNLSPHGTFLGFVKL

[4] = target: T1, human BAFF protein (ACRO Biosystems, …); test: BLI Octet RED96e, protein captured on AHC sensor, BAFF 1.56-100 nM in solution
[5] = target: T3, human APRIL protein (ACRO Biosystems, …); test: BLI Octet RED96e, protein captured on AHC sensor, APRIL 1.56-100 nM in solution
[6] = target: T2, human BDCA2 protein (Kactus Biosystems, …); test: BLI Octet RED96e, fusion protein captured on AHC sensor, BDCA2 1.56-100 nM in solution
[7] = target: T4, human FcRn protein (ACRO Biosystems, Cat. No.: FCM-H82W4) (human, UniProt P55899 24-297; P61769 21-119); test: BLI Octet RED96e, FcRn on SA sensor, fusion protein 3.13-200 nM; binding pH 6.0, dissociation pH 6.0
[8] = target: T4, human FcRn protein (ACRO Biosystems, …); test: BLI Octet RED96e, FcRn on SA sensor, fusion protein 3.13-200 nM; binding pH 6.0, dissociation pH 7.4
[9] = target: T1, human BAFF protein (ACRO Biosystems, …); test: BLI Octet RED96e, protein captured on AHC sensor, BAFF 1.56-100 nM in solution; remark: listed apart in the source
[10] = target: T3, human APRIL protein (ACRO Biosystems, …); test: BLI Octet RED96e, protein captured on AHC sensor, APRIL 1.56-100 nM in solution; remark: listed apart in the source
[11] = target: T2, human BDCA2 protein (Kactus Biosystems, …); test: BLI Octet RED96e, fusion protein captured on AHC sensor, BDCA2 1.56-100 nM in solution; remark: listed apart in the source

T1 sequence (Q9Y275 134-285 limits assumed): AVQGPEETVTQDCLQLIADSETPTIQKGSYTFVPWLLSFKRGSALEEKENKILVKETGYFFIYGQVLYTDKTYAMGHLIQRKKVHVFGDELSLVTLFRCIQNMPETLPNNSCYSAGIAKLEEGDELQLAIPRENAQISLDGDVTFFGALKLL
T4 sequence (P55899 24-297 limits assumed, chain 1 of 2): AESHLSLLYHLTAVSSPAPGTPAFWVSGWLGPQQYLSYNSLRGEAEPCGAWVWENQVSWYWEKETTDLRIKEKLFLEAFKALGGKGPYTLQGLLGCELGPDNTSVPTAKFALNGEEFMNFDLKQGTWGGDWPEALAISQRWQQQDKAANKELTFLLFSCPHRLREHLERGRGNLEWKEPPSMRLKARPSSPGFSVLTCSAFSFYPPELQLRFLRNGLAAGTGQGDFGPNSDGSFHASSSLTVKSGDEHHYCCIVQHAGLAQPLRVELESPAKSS
T4 sequence (P61769 21-119 limits assumed, chain 2 of 2): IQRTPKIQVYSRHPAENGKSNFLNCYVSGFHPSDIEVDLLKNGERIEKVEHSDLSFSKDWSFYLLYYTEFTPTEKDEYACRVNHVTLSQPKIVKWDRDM

Row | Binder | Kd [1] [nM] | Response (nm) [1] [nm] | koff [1] [s⁻¹] | kon [1] [M⁻¹ s⁻¹] | Response (nm) [2] [nm] | kon [2] [M⁻¹ s⁻¹] | Kd [3] [nM] | Response (nm) [3] [nm] | koff [3] [s⁻¹] | kon [3] [M⁻¹ s⁻¹] | Kd [4] [nM] | koff [4] [s⁻¹] | kon [4] [M⁻¹ s⁻¹] | Kd [5] [nM] | koff [5] [s⁻¹] | kon [5] [M⁻¹ s⁻¹] | Kd [7] [nM] | koff [7] [s⁻¹] | kon [7] [M⁻¹ s⁻¹] | Kd [8] [nM] | further results
1 | B1 | < 0.001 | 0.49 | < 1e-07 | 438000 | 0.449 | 112000 | < 0.001 | 0.397 | < 1e-07 | 722000 | 0.147 | 7.23e-05 | 492000 | 0.415 | 0.000321 | 774000 | 20.1 | 0.035 | 1.74e+06 | 3140 | Kd [2]: < 0.001 nM; koff [2]: < 1e-07 s⁻¹; Kd [6]: < 0.001 nM; koff [6]: < 1e-07 s⁻¹; kon [6]: 86600 M⁻¹ s⁻¹; koff [8]: 0.0842 s⁻¹; kon [8]: 26800 M⁻¹ s⁻¹
2 | B2 |  |  |  |  |  |  |  |  |  |  |  |  |  |  |  |  | 5.12 | 0.0062 | 1.21e+06 | 727 | Kd [9]: 0.0384 nM; koff [9]: 1.97e-05 s⁻¹; kon [9]: 515000 M⁻¹ s⁻¹; Kd [10]: < 0.001 nM; koff [10]: < 1e-07 s⁻¹; kon [10]: 981000 M⁻¹ s⁻¹; Kd [11]: < 0.001 nM; koff [11]: < 1e-07 s⁻¹; kon [11]: 100000 M⁻¹ s⁻¹; koff [8]: 0.0888 s⁻¹; kon [8]: 122000 M⁻¹ s⁻¹
3 | B3 | 1.1 | 0.319 | 0.000262 | 239000 | -0.0175 | 95600 | 2.08 | 0.199 | 0.00141 | 681000 | 1.47 | 0.000475 | 323000 | 2.05 | 0.00139 | 678000 |  |  |  |  | Kd [9]: 1.47 nM; koff [9]: 0.000475 s⁻¹; kon [9]: 323000 M⁻¹ s⁻¹; Kd [10]: 2.05 nM; koff [10]: 0.00139 s⁻¹; kon [10]: 678000 M⁻¹ s⁻¹
